Measured values reported in publication PMC5100913 (PLoS ONE, 2016).

Target: T1, Aha1 (yeast, UniProt Q12449 1-350)
T1 sequence (looked up): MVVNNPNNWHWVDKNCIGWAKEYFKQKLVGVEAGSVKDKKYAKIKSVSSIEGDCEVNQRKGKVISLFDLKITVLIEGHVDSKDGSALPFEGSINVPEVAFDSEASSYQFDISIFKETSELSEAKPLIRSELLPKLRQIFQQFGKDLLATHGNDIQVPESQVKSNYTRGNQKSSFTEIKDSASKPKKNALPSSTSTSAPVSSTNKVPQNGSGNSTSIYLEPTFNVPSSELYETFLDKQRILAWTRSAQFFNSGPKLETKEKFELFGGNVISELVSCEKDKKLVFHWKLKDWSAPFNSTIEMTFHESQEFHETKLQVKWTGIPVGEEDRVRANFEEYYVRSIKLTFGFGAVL
Assay: cell-based or functional assay

B1: yeast Hsp90 (natural protein)
chain: not shown
stimulation of the chaperone's ATPase activity by Aha1 (NADH coupled enzymatic assay, hsp90:Aha1 1:2): 10 fold
